Our source for the binding result and % of protein binding to LUV values is PMC8908268 (The Journal of Biological Chemistry, 2022).

The target of test [1] is T1, Halo-tagged full-length Gads (Grb2-related adapter protein downstream of Shc), 1–322aa (UniProt O89100 1-322).
T1 sequence: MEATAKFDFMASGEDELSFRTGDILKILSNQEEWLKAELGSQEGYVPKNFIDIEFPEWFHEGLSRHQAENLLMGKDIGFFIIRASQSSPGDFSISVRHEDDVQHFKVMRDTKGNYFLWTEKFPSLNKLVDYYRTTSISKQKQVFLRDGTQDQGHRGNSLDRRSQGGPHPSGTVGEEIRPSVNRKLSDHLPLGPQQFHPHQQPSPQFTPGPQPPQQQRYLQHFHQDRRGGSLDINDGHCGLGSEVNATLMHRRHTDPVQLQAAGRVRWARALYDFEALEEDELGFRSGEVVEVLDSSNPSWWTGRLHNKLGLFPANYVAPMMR
The test is described as follows: co-sedimentation.

Test [2] concerns the target His-tagged, doubly phosphorylated LAT (48–233aa; pY132 and pY171) (UniProt O43561). The test is described as follows: co-sedimentation.

“And” between values parts separate entries of the source, which are not always exact repeats. Identical values can stand only once.

B1: SLP-76 tyrosine- and proline-rich domains (103–258aa with Y113F and Y173F mutations) (domain or fragment)
chain: GGWSSFEEDDFESPNDDQDGEDDGDYESPNEEEEAPVEDDADYEPPPSNDEEALQNSILPAKPFPNSNSMFIDRPPSGKTPQQPPVPPQRPMAALPPPPAGRNHSPLPPPQTNHEEPSRSRNHKTAKLPAPSIDRSTKPPLDRSLAPFDREPFTLG
Turning to B1, the binding result in test [1] was “binds”.

B2: Halo-tagged full-length Gads (Grb2-related adapter protein downstream of Shc), 1–322aa (natural protein)
chain: MEATAKFDFMASGEDELSFRTGDILKILSNQEEWLKAELGSQEGYVPKNFIDIEFPEWFHEGLSRHQAENLLMGKDIGFFIIRASQSSPGDFSISVRHEDDVQHFKVMRDTKGNYFLWTEKFPSLNKLVDYYRTTSISKQKQVFLRDGTQDQGHRGNSLDRRSQGGPHPSGTVGEEIRPSVNRKLSDHLPLGPQQFHPHQQPSPQFTPGPQPPQQQRYLQHFHQDRRGGSLDINDGHCGLGSEVNATLMHRRHTDPVQLQAAGRVRWARALYDFEALEEDELGFRSGEVVEVLDSSNPSWWTGRLHNKLGLFPANYVAPMMR
Regarding B2, the % of protein binding to LUV in test [2] was 26.3% and 31.4% and 42.8%.
